This experiment has as its target gef1_schpo gef1 (UniProt Q09763).

gef1_schpo gef1, sequence (Q09763 whole entry): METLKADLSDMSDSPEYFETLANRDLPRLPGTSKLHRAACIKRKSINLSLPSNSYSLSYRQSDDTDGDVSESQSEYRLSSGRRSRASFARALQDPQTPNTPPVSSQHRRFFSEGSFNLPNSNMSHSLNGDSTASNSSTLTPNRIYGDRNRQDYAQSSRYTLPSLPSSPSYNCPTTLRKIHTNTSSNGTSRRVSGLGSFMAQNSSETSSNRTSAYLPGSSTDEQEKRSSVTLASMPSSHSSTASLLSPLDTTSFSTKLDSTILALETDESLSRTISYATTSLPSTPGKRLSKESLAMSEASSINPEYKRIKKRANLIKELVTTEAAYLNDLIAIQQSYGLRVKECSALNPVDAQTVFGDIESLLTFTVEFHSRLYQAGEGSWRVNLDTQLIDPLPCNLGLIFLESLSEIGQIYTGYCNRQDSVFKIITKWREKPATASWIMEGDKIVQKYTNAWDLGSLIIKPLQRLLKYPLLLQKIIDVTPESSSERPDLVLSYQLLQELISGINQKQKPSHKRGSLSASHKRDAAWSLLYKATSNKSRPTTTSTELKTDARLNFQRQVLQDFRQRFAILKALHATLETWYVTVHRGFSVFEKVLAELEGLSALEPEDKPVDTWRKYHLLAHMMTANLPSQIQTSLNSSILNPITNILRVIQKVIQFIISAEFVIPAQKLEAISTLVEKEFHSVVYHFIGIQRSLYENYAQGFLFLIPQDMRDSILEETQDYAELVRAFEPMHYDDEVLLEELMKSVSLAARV
Cell division control protein 42 homolog (Schizosaccharomyces pombe (strain ATCC 38366 / 972)), Q01112 D118A, sequence (Q01112 whole entry D118A): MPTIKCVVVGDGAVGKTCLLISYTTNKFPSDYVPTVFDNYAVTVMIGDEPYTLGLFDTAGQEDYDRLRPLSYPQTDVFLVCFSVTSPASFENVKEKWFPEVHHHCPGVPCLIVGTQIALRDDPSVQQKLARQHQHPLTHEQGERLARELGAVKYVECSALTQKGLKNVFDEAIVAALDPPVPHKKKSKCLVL
Cell division control protein 42 homolog (Schizosaccharomyces pombe (strain ATCC 38366 / 972)), Q01112 T17N, sequence (Q01112 whole entry T17N): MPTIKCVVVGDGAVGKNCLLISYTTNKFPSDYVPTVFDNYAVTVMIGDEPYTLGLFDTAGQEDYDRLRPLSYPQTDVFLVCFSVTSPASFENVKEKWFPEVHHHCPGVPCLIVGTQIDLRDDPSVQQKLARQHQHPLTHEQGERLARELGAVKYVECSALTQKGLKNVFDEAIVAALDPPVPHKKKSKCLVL

“Cell division control protein 42 homolog (Schizosaccharomyces pombe (strain ATCC 38366 / 972)), Q01112 D118A”: the “effect of a mutation on the interaction” value is recorded as “increasing interaction”.

Consider “Cell division control protein 42 homolog (Schizosaccharomyces pombe (strain ATCC 38366 / 972)), Q01112 T17N”, for which the “effect of a mutation on the interaction” value is reported as “increasing interaction”.

These data come from IntAct's records for PubMed 12529446.
